Data on 55 molecules can be found in PMC12416549 (2024).

This assay concerns the target T1, TNFR1 (Homo sapiens, UniProt P19438).
T1 chain: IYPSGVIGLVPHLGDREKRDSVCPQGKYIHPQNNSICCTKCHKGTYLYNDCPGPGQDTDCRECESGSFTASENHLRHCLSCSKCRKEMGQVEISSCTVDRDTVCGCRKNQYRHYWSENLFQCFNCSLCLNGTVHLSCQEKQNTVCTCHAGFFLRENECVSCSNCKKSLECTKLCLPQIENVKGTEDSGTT
The assay is described as follows: yeast display SC50.

Positions count from the first letter of the chain named. Names and notes keep the numbering of the source.

B1: H78R (designed binder)
chain: MTLQELLREEALRRAEAEAFRYALELLAEKFPEQKEYLLDLAEEIESQIRSLSGVDVEDVRKFLDKEWAWVKELLAERPAELAEVEAARAARLAELRAEVEAKVAA
Turning to B1, the “apparent Kd (screen)” value was determined as 0.49 nM.

B2: M1W (designed binder)
chain: B1 chain with M1W, R78H
With B2, the “apparent Kd (screen)” value came out at 0.653 nM.

B3: R8I (designed binder)
chain: B1 chain with R8I, R78H
In the case of B3, the “apparent Kd (screen)” value came out at 0.593 nM.

B4: I45P (designed binder)
chain: B1 chain with I45P, R78H
Turning to B4, the “apparent Kd (screen)” value amounted to 0.229 nM.

B5: A23D (designed binder)
chain: B1 chain with A23D, R78H
As for B5, the “apparent Kd (screen)” value turned out to be 2.25 nM.

B6: R21Q (designed binder)
chain: B1 chain with R21Q, R78H
Take B6: the “apparent Kd (screen)” value was 0.539 nM.

B7: V57T (designed binder)
chain: B1 chain with V57T, R78H
As to B7, the “apparent Kd (screen)” value turned out to be 1.05 nM.

B8: L12Y (designed binder)
chain: B1 chain with L12Y, R78H
Turning to B8, the “apparent Kd (screen)” value was determined as 0.539 nM.

B9: A105C (designed binder)
chain: B1 chain with R78H, A105C
For B9, the “apparent Kd (screen)” value was 0.653 nM.

B10: A90C (designed binder)
chain: B1 chain with R78H, A90C
On to B10, for which the “apparent Kd (screen)” value came out at 0.718 nM.

B11: D56I (designed binder)
chain: B1 chain with D56I, R78H
As to B11, the “apparent Kd (screen)” value was determined as 2.73 nM.

B12: S47K (designed binder)
chain: B1 chain with S47K, R78H
Consider B12, for which the “apparent Kd (screen)” value was 0.653 nM.

B13: H78L (designed binder)
chain: B1 chain with R78L
With B13, the “apparent Kd (screen)” value is 1.86 nM.

B14: A11C (designed binder)
chain: B1 chain with A11C, R78H
Consider B14, for which the “apparent Kd (screen)” value worked out at 0.405 nM.

B15: V60M (designed binder)
chain: B1 chain with V60M, R78H
As to B15, the “apparent Kd (screen)” value is 0.49 nM.

B16: K103Y (designed binder)
chain: B1 chain with R78H, K103Y
B16: the “apparent Kd (screen)” value is 0.869 nM.

B17: A87N (designed binder)
chain: B1 chain with R78H, A87N
For B17, the “apparent Kd (screen)” value was determined as 0.593 nM.

B18: E29C (designed binder)
chain: B1 chain with E29C, R78H
As for B18, the “apparent Kd (screen)” value was found to be 0.539 nM.

B19: L82E (designed binder)
chain: B1 chain with R78H, L82E
Consider B19, for which the “apparent Kd (screen)” value was 2.73 nM.

B20: K62G (designed binder)
chain: B1 chain with K62G, R78H
On to B20, for which the “apparent Kd (screen)” value came out at 0.869 nM.

B21: L64N (designed binder)
chain: B1 chain with L64N, R78H
As for B21, the “apparent Kd (screen)” value was determined as 0.593 nM.

B22: F63I (designed binder)
chain: B1 chain with F63I, R78H
Take B22: the “apparent Kd (screen)” value worked out at 1.54 nM.

B23: E86T (designed binder)
chain: B1 chain with R78H, E86T
On to B23, for which the “apparent Kd (screen)” value stood at 0.718 nM.

B24: L93G (designed binder)
chain: B1 chain with R78H, L93G
On to B24, for which the “apparent Kd (screen)” value is 1.4 nM.

B25: G54E (designed binder)
chain: B1 chain with G54E, R78H
Turning to B25, the “apparent Kd (screen)” value was 26.9 nM.

B26: A76Y (designed binder)
chain: B1 chain with A76Y, R78H
Regarding B26, the “apparent Kd (screen)” value is 0.539 nM.

B27: L96W (designed binder)
chain: B1 chain with R78H, L96W
On to B27, for which the “apparent Kd (screen)” value amounted to 0.79 nM.

B28: A98C (designed binder)
chain: B1 chain with R78H, A98C
As for B28, the “apparent Kd (screen)” value is 0.49 nM.

B29: A17K (designed binder)
chain: B1 chain with A17K, R78H
On to B29, for which the “apparent Kd (screen)” value was found to be 1.16 nM.

B30: Q48N (designed binder)
chain: B1 chain with Q48N, R78H
On to B30, for which the “apparent Kd (screen)” value was determined as 0.49 nM.

B31: L27K (designed binder)
chain: B1 chain with L27K, R78H
Consider B31, for which the “apparent Kd (screen)” value worked out at 0.49 nM.

B32: L12W (designed binder)
chain: B1 chain with L12W, R78H
Consider B32, for which the “apparent Kd (screen)” value was 0.593 nM.

B33: A91F (designed binder)
chain: B1 chain with R78H, A91F
On to B33, for which the “apparent Kd (screen)” value was found to be 0.49 nM.

B34: L3W (designed binder)
chain: B1 chain with L3W, R78H
For the molecule B34, the “apparent Kd (screen)” value was 2.25 nM.

B35: V55R (designed binder)
chain: B1 chain with V55R, R78H
Turning to B35, the “apparent Kd (screen)” value was found to be 2.48 nM.

B36: D59Q (designed binder)
chain: B1 chain with D59Q, R78H
Turning to B36, the “apparent Kd (screen)” value came to 0.869 nM.

B37: A76D (designed binder)
chain: B1 chain with A76D, R78H
Turning to B37, the “apparent Kd (screen)” value amounted to 0.446 nM.

B38: V85S (designed binder)
chain: B1 chain with R78H, V85S
Take B38: the “apparent Kd (screen)” value came out at 0.869 nM.

B39: A28L (designed binder)
chain: B1 chain with A28L, R78H
On to B39, for which the “apparent Kd (screen)” value turned out to be 20.2 nM.

B40: F63N (designed binder)
chain: B1 chain with F63N, R78H
On to B40, for which the “apparent Kd (screen)” value worked out at 2.05 nM.

B41: A83I (designed binder)
chain: B1 chain with R78H, A83I
On to B41, for which the “apparent Kd (screen)” value amounted to 0.869 nM.

B42: E9M (designed binder)
chain: B1 chain with E9M, R78H
B42: the “apparent Kd (screen)” value was determined as 0.653 nM.

B43: A90D (designed binder)
chain: B1 chain with R78H, A90D
For the molecule B43, the “apparent Kd (screen)” value stood at 0.446 nM.

B44: A91H (designed binder)
chain: B1 chain with R78H, A91H
As to B44, the “apparent Kd (screen)” value was found to be 0.593 nM.

B45: A91N (designed binder)
chain: B1 chain with R78H, A91N
On to B45, for which the “apparent Kd (screen)” value was 0.593 nM.

B46: K35E (designed binder)
chain: B1 chain with K35E, R78H
Take B46: the “apparent Kd (screen)” value came out at 1.16 nM.

B47: A102E (designed binder)
chain: B1 chain with R78H, A102E
As to B47, the “apparent Kd (screen)” value came out at 0.49 nM.

B48: A94P (designed binder)
chain: B1 chain with R78H, A94P
Take B48: the “apparent Kd (screen)” value amounted to 0.956 nM.

B49: L52F (designed binder)
chain: B1 chain with L52F, R78H
Consider B49, for which the “apparent Kd (screen)” value came to 1.69 nM.

B50: R97T (designed binder)
chain: B1 chain with R78H, R97T
As for B50, the “apparent Kd (screen)” value worked out at 0.539 nM.

B51: V85N (designed binder)
chain: B1 chain with R78H, V85N
Regarding B51, the “apparent Kd (screen)” value amounted to 0.653 nM.

B52: L7T (designed binder)
chain: B1 chain with L7T, R78H
For the molecule B52, the “apparent Kd (screen)” value stood at 18.3 nM.

B53: A88V (designed binder)
chain: B1 chain with R78H, A88V
On to B53, for which the “apparent Kd (screen)” value came out at 0.956 nM.

B54: L52M (designed binder)
chain: B1 chain with L52M, R78H
On to B54, for which the “apparent Kd (screen)” value turned out to be 15.2 nM.

B55: E86K (designed binder)
chain: B1 chain with R78H, E86K
Take B55: the “apparent Kd (screen)” value was 1.27 nM.
